According to US20140087995A1 (published 2014):
Numbered stars: 1 amine (or outer) side, 2 acyl side, 3 side chain; on linkers, the order of the positions; unused ones are H or OH. Bridge positions count the residues as written; N and C are the ends. * marks the point of attachment. C20 diacid = O=C(O)CCCCCCCCCCCCCCCCCCC(=O)*; γGlu = O=C(O)[C@H](CCC(=O)[*:2])N[*:1]

What was measured:
[1] = target: T1, human calcitonin receptor (human, UniProt P30988 25-474); assay: ratio of IC50 at hCTR to IC50 at the human amylin receptor (reference)
T1 construct: whole, on cells; also called hCTR; hCT
T1 sequence (looked up): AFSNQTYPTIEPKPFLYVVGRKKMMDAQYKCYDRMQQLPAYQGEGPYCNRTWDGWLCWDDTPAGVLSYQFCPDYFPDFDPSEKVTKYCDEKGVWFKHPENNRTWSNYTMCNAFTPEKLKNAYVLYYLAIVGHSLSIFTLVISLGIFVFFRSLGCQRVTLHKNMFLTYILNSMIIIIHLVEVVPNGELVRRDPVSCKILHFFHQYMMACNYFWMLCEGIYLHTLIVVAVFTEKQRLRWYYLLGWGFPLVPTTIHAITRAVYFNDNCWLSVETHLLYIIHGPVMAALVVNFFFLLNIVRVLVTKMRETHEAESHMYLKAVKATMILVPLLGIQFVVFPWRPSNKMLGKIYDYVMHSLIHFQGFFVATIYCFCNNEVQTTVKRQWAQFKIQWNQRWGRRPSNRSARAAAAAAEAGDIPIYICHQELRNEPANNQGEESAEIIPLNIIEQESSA
Description: The resulting pellet was resuspended, homogenized and centrifuged (20.000 rpm, 15 min) in a buffer containing 20 mM Na-HEPES and 0.1 mM EDTA (pH 7.4, buffer 2). The resulting pellet was resuspended in buffer 2 and protein concentration was measured (BCA protein Assay, Pierce). The homogenate was kept cold during the whole procedure. The membranes were kept at −80° C. until use. The assay was performed in a 384 well Optiplate (PerkinElmer) in a total volume of 40 ul. Membranes were mixed with SPA beads. Final concentration of membranes 35 ng/μL final and SPA beads was 0.05 mg/well. Test-compounds were dissolved in DMSO and further diluted in assay buffer (50 mM Hepes, pH 7.4, 1 mM CaCl2, 5 mM MgCl₂, 0.1% OA and 0.02% Tween20). […] The final mixture was incubated with shaking at 400 rpm for 120 min at 25° C. prior to centrifugation (1500 rpm, 10 min). Samples were analyzed on TopCounter™ (Packard). The IC₅₀ was calculated using (one site binding competition analysis) GraphPad Prism5 as a measure of receptor affinity.
Membranes were prepared in the following way; the cells were rinsed with PBS and incubated with Versene for approximately 5 min before harvesting. The cells were flushed with PBS and the cell-suspension was centrifuged for 5 min at 1000 rpm. Cells were homogenized (Ultrathurrax) in a buffer containing 20 mM Na-HEPES and 10 mM EDTA (pH 7.4) and centrifuged at 20.000 rpm for 15 min. The resulting pellet was resuspended, homogenized and centrifuged (20.000 rpm, 15 min) in a buffer containing 20 mM Na-HEPES and 0.1 mM EDTA (pH 7.4, buffer 2). The resulting pellet was resuspended in buffer 2 and protein concentration was measured (BCA protein Assay, Pierce). The homogenate was kept cold during the whole procedure. The membranes were kept at −80° C. until use. Assay was performed in a 384 well Optiplate (PerkinElmer) in a total volume of 40 ul. Membranes were mixed with SPA beads.

[2] = target: T1, human calcitonin receptor; assay: SPA competition binding, membranes with human calcitonin receptor, displacement of 125I-calcitonin (Assay VII)
Description: Membranes were prepared in the following way; the cells were rinsed with PBS and incubated with Versene for approximately 5 min before harvesting. The cells were flushed with PBS and the cell-suspension was centrifuged for 5 min at 1000 rpm. Cells were homogenized (Ultrathurrax) in a buffer containing 20 mM Na-HEPES and 10 mM EDTA (pH 7.4) and centrifuged at 20.000 rpm for 15 min. The resulting pellet was resuspended, homogenized and centrifuged (20.000 rpm, 15 min) in a buffer containing 20 mM Na-HEPES and 0.1 mM EDTA (pH 7.4, buffer 2). The resulting pellet was resuspended in buffer 2 and protein concentration was measured (BCA protein Assay, Pierce). The homogenate was kept cold during the whole procedure. The membranes were kept at −80° C. until use. Assay was performed in a 384 well Optiplate (PerkinElmer) in a total volume of 40 ul. Membranes were mixed with SPA beads. Final concentration of membranes 35 ng/μL final and Final concentration of SPA beads was 0.05 mg/well. Test-compounds were dissolved in DMSO and further diluted in assay buffer (50 mM Hepes, pH 7.4, 1 mM CaCl2, 5 mM MgCl₂, 0.1% OA and 0.02% Tween20). […] The final mixture was incubated for 120 min with shaking at 400 rpm at 25° C. prior to centrifugation (1500 rpm, 10 min). Samples were analyzed on TopCounter™ (Packard). The […] was calculated using (one site binding competition analysis) GraphPad Prism5 as a measure of receptor affinity.

| Binder | Ratio hCT/hAmylin binding [1] | IC50 [2] [nM] |
| --- | --- | --- |
| {C20 diacid-γGlu}-KCNTATCATQRLAEFLRHSSPNFGPILPPTNVGSNTY-NH2 (disulfide 2-7; SMILES CC[C@H](C)[C@H](NC(=O)[C@@H]1CCCN1C(=O)CNC(=O)[C@H](Cc1ccccc1)NC(=O)[C@H](CC(N)=O)NC(=O)[C@@H]1CCCN1C(=O)[C@H](CO)NC(=O)[C@H](CO)NC(=O)[C@H](Cc1c[nH]cn1)NC(=O)[C@H](CCCNC(=N)N)NC(=O)[C@H](CC(C)C)NC(=O)[C@H](Cc1ccccc1)NC(=O)[C@H](CCC(=O)O)NC(=O)[C@H](C)NC(=O)[C@H](CC(C)C)NC(=O)[C@H](CCCNC(=N)N)NC(=O)[C@H](CCC(N)=O)NC(=O)[C@@H](NC(=O)[C@H](C)NC(=O)[C@@H]1CSSC[C@H](NC(=O)[C@H](CCCCN)NC(=O)CC[C@H](NC(=O)CCCCCCCCCCCCCCCCCCC(=O)O)C(=O)O)C(=O)N[C@@H](CC(N)=O)C(=O)N[C@@H]([C@@H](C)O)C(=O)N[C@@H](C)C(=O)N[C@@H]([C@@H](C)O)C(=O)N1)[C@@H](C)O)C(=O)N[C@@H](CC(C)C)C(=O)N1CCC[C@H]1C(=O)N1CCC[C@H]1C(=O)N[C@H](C(=O)N[C@@H](CC(N)=O)C(=O)N[C@H](C(=O)NCC(=O)N[C@@H](CO)C(=O)N[C@@H](CC(N)=O)C(=O)N[C@H](C(=O)N[C@@H](Cc1ccc(O)cc1)C(N)=O)[C@@H](C)O)C(C)C)[C@@H](C)O, also called compound 6) | 20 | 19.9 |
| {C20 diacid-γGlu}-KCNTATCATQRLAEFLRHSSPNFGAIPSSTNVGSRTY-NH2 (disulfide 2-7; SMILES CC[C@H](C)[C@H](NC(=O)[C@H](C)NC(=O)CNC(=O)[C@H](Cc1ccccc1)NC(=O)[C@H](CC(N)=O)NC(=O)[C@@H]1CCCN1C(=O)[C@H](CO)NC(=O)[C@H](CO)NC(=O)[C@H](Cc1c[nH]cn1)NC(=O)[C@H](CCCNC(=N)N)NC(=O)[C@H](CC(C)C)NC(=O)[C@H](Cc1ccccc1)NC(=O)[C@H](CCC(=O)O)NC(=O)[C@H](C)NC(=O)[C@H](CC(C)C)NC(=O)[C@H](CCCNC(=N)N)NC(=O)[C@H](CCC(N)=O)NC(=O)[C@@H](NC(=O)[C@H](C)NC(=O)[C@@H]1CSSC[C@H](NC(=O)[C@H](CCCCN)NC(=O)CC[C@H](NC(=O)CCCCCCCCCCCCCCCCCCC(=O)O)C(=O)O)C(=O)N[C@@H](CC(N)=O)C(=O)N[C@@H]([C@@H](C)O)C(=O)N[C@@H](C)C(=O)N[C@@H]([C@@H](C)O)C(=O)N1)[C@@H](C)O)C(=O)N1CCC[C@H]1C(=O)N[C@@H](CO)C(=O)N[C@@H](CO)C(=O)N[C@H](C(=O)N[C@@H](CC(N)=O)C(=O)N[C@H](C(=O)NCC(=O)N[C@@H](CO)C(=O)N[C@@H](CCCNC(=N)N)C(=O)N[C@H](C(=O)N[C@@H](Cc1ccc(O)cc1)C(N)=O)[C@@H](C)O)C(C)C)[C@@H](C)O, also called compound 16) | 19.1 | 17.1 |
| {C20 diacid-γGlu}-KCNTATCATQRLAEFLRHSSPNFGAPLSSTNVGSNTP-NH2 (disulfide 2-7; SMILES CC(C)C[C@H](NC(=O)[C@H](CCCNC(=N)N)NC(=O)[C@H](CCC(N)=O)NC(=O)[C@@H](NC(=O)[C@H](C)NC(=O)[C@@H]1CSSC[C@H](NC(=O)[C@H](CCCCN)NC(=O)CC[C@H](NC(=O)CCCCCCCCCCCCCCCCCCC(=O)O)C(=O)O)C(=O)N[C@@H](CC(N)=O)C(=O)N[C@@H]([C@@H](C)O)C(=O)N[C@@H](C)C(=O)N[C@@H]([C@@H](C)O)C(=O)N1)[C@@H](C)O)C(=O)N[C@@H](C)C(=O)N[C@@H](CCC(=O)O)C(=O)N[C@@H](Cc1ccccc1)C(=O)N[C@@H](CC(C)C)C(=O)N[C@@H](CCCNC(=N)N)C(=O)N[C@@H](Cc1c[nH]cn1)C(=O)N[C@@H](CO)C(=O)N[C@@H](CO)C(=O)N1CCC[C@H]1C(=O)N[C@@H](CC(N)=O)C(=O)N[C@@H](Cc1ccccc1)C(=O)NCC(=O)N[C@@H](C)C(=O)N1CCC[C@H]1C(=O)N[C@@H](CC(C)C)C(=O)N[C@@H](CO)C(=O)N[C@@H](CO)C(=O)N[C@H](C(=O)N[C@@H](CC(N)=O)C(=O)N[C@H](C(=O)NCC(=O)N[C@@H](CO)C(=O)N[C@@H](CC(N)=O)C(=O)N[C@H](C(=O)N1CCC[C@H]1C(N)=O)[C@@H](C)O)C(C)C)[C@@H](C)O, also called compound 5) | 1.4 | 0.537 |
| {C20 diacid-γGlu}-KCNTATCATQRLAEFLRHSSPNFGAIPSSTNVGSDTP-NH2 (disulfide 2-7; SMILES CC[C@H](C)[C@H](NC(=O)[C@H](C)NC(=O)CNC(=O)[C@H](Cc1ccccc1)NC(=O)[C@H](CC(N)=O)NC(=O)[C@@H]1CCCN1C(=O)[C@H](CO)NC(=O)[C@H](CO)NC(=O)[C@H](Cc1c[nH]cn1)NC(=O)[C@H](CCCNC(=N)N)NC(=O)[C@H](CC(C)C)NC(=O)[C@H](Cc1ccccc1)NC(=O)[C@H](CCC(=O)O)NC(=O)[C@H](C)NC(=O)[C@H](CC(C)C)NC(=O)[C@H](CCCNC(=N)N)NC(=O)[C@H](CCC(N)=O)NC(=O)[C@@H](NC(=O)[C@H](C)NC(=O)[C@@H]1CSSC[C@H](NC(=O)[C@H](CCCCN)NC(=O)CC[C@H](NC(=O)CCCCCCCCCCCCCCCCCCC(=O)O)C(=O)O)C(=O)N[C@@H](CC(N)=O)C(=O)N[C@@H]([C@@H](C)O)C(=O)N[C@@H](C)C(=O)N[C@@H]([C@@H](C)O)C(=O)N1)[C@@H](C)O)C(=O)N1CCC[C@H]1C(=O)N[C@@H](CO)C(=O)N[C@@H](CO)C(=O)N[C@H](C(=O)N[C@@H](CC(N)=O)C(=O)N[C@H](C(=O)NCC(=O)N[C@@H](CO)C(=O)N[C@@H](CC(=O)O)C(=O)N[C@H](C(=O)N1CCC[C@H]1C(N)=O)[C@@H](C)O)C(C)C)[C@@H](C)O, also called compound 11) | 1 | 0.101 |
| {C20 diacid-γGlu}-KCNTATCATQRLAEFLRHSSPNFGAPLSSTNVGSNTY-NH2 (disulfide 2-7; SMILES CC(C)C[C@H](NC(=O)[C@H](CCCNC(=N)N)NC(=O)[C@H](CCC(N)=O)NC(=O)[C@@H](NC(=O)[C@H](C)NC(=O)[C@@H]1CSSC[C@H](NC(=O)[C@H](CCCCN)NC(=O)CC[C@H](NC(=O)CCCCCCCCCCCCCCCCCCC(=O)O)C(=O)O)C(=O)N[C@@H](CC(N)=O)C(=O)N[C@@H]([C@@H](C)O)C(=O)N[C@@H](C)C(=O)N[C@@H]([C@@H](C)O)C(=O)N1)[C@@H](C)O)C(=O)N[C@@H](C)C(=O)N[C@@H](CCC(=O)O)C(=O)N[C@@H](Cc1ccccc1)C(=O)N[C@@H](CC(C)C)C(=O)N[C@@H](CCCNC(=N)N)C(=O)N[C@@H](Cc1c[nH]cn1)C(=O)N[C@@H](CO)C(=O)N[C@@H](CO)C(=O)N1CCC[C@H]1C(=O)N[C@@H](CC(N)=O)C(=O)N[C@@H](Cc1ccccc1)C(=O)NCC(=O)N[C@@H](C)C(=O)N1CCC[C@H]1C(=O)N[C@@H](CC(C)C)C(=O)N[C@@H](CO)C(=O)N[C@@H](CO)C(=O)N[C@H](C(=O)N[C@@H](CC(N)=O)C(=O)N[C@H](C(=O)NCC(=O)N[C@@H](CO)C(=O)N[C@@H](CC(N)=O)C(=O)N[C@H](C(=O)N[C@@H](Cc1ccc(O)cc1)C(N)=O)[C@@H](C)O)C(C)C)[C@@H](C)O, also called compound 7) [N^α1-[(4S)-4-carboxy-4-(19-carboxynonadecanoylamino)butanoyl]-[Glu14,Arg17,Pro21,Pro26]-h-amylin] | 16.5 | 11.1 |
